Legend:
Fer (mouse) = assay: phosphorylation enrichment, bacterial display (enrichment ratio); higher = better substrate or ligand; peptides without Tyr show the background
Fes = Fes (UniProt P07332); assay: as above
Fyn = Fyn (UniProt P06241); assay: as above
EPHB1 = EPHB1 (UniProt P54762); assay: as above
c-Abl (mouse) = assay: as above
Hck = Hck (UniProt P08631); assay: as above
FGFR3 = FGFR3 (UniProt P22607); assay: as above
EPHB2 = EPHB2 (UniProt P29323); assay: as above
MERTK = MERTK (UniProt Q12866); assay: as above
c-Src = assay: as above
FGFR1 = FGFR1 (UniProt P11362); assay: as above
Jak2 = Jak2 (UniProt O60674); assay: as above
AncSZ = assay: as above
SHP2-C SH2 = assay: SH2 binding enrichment of the phosphorylated peptide, bacterial display (enrichment ratio); higher = better substrate or ligand; peptides without Tyr show the background
Grb2 SH2 = Grb2 SH2 (UniProt P62993); assay: as above
c-Src SH2 = assay: as above
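Throughout, for SH2 binding enrichment of the phosphorylated peptide, bacterial display: peptide library displayed on the E. coli surface as eCPX fusions, selected cells deep-sequenced, score is each peptide's frequency after selection divided by its frequency in the input.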
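Throughout, for phosphorylation enrichment, bacterial display: 11-residue human phosphosite peptides and single-mutation variants displayed on the E. coli surface, counted by deep sequencing, each peptide's frequency after selection divided by its frequency in the unselected input library; frequency after pTyr selection over input frequency; kinase dosed for 20-30% of maximal phosphorylation in three min.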

Sequence of FGFR3 (P22607 whole entry, looked up): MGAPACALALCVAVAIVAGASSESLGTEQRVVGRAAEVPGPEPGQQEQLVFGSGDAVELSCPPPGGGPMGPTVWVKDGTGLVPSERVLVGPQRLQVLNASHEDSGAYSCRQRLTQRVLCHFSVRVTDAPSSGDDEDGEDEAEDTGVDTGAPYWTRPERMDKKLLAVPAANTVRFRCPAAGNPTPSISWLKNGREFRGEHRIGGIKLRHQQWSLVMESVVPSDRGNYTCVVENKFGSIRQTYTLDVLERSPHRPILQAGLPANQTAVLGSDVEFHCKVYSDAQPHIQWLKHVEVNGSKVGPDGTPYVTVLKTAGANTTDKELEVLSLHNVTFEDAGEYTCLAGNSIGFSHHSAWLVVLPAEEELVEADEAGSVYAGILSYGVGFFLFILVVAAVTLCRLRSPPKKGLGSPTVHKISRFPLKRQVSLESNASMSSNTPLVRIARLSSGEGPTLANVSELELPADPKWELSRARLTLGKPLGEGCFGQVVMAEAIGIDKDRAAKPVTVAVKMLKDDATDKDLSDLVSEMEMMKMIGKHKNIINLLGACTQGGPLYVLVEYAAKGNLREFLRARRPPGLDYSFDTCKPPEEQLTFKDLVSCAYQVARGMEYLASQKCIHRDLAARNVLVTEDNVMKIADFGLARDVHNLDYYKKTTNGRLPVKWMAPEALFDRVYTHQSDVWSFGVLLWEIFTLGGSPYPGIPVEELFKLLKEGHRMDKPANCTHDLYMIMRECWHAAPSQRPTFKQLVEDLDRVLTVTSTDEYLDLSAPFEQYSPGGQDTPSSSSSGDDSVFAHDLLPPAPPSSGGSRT
Sequence of EPHB1 (P54762 whole entry, looked up): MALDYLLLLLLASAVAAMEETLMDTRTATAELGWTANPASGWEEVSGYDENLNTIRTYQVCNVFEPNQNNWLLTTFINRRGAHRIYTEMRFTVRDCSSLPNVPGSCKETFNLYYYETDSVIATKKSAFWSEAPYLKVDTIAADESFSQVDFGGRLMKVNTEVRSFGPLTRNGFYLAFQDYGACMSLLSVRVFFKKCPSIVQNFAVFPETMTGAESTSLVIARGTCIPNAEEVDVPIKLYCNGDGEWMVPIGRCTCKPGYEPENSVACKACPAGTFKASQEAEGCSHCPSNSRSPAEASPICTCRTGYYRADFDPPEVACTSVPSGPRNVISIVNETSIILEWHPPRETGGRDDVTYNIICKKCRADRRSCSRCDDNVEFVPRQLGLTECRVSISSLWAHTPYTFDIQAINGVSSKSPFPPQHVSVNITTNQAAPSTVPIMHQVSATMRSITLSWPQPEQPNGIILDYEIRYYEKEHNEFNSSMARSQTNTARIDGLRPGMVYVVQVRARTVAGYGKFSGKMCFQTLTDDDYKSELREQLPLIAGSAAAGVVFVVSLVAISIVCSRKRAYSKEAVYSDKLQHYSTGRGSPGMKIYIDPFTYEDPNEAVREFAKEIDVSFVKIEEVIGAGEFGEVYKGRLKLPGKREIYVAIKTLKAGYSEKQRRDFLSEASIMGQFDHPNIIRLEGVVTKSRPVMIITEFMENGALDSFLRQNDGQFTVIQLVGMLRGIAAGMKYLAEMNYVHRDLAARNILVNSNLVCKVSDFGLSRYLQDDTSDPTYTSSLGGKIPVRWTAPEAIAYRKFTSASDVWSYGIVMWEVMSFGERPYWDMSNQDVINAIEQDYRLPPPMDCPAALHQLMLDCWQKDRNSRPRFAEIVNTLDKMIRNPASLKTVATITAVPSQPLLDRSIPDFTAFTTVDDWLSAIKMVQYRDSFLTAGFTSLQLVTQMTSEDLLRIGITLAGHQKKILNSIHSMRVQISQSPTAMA
Sequence of Grb2 SH2 (P62993 whole entry, looked up): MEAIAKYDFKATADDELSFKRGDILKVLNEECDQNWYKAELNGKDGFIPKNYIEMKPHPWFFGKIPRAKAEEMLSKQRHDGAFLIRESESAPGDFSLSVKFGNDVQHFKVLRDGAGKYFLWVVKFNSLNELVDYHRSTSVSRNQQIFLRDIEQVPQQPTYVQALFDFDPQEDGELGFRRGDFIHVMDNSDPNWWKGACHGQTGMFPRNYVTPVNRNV
Sequence of Fes (P07332 whole entry, looked up): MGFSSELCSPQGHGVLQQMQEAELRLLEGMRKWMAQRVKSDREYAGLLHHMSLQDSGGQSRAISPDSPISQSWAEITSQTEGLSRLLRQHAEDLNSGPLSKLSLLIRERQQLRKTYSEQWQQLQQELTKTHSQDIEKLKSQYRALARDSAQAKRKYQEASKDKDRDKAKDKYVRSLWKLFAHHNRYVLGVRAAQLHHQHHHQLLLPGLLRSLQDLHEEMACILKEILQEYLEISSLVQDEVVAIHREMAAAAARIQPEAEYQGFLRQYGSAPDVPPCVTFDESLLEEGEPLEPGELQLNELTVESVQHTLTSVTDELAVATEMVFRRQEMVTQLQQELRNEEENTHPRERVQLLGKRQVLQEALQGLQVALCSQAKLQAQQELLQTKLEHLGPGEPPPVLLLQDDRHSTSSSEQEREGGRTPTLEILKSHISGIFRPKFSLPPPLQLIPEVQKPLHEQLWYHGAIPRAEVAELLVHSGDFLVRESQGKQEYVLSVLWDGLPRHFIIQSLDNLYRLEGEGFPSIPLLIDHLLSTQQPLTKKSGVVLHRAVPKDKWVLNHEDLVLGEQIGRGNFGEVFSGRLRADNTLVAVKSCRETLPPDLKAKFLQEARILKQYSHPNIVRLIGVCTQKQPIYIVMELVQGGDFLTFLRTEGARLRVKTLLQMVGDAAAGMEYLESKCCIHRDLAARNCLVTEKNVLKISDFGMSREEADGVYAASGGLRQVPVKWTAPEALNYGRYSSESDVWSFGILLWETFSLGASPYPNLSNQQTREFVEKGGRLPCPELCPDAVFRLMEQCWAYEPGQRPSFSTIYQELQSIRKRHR
Sequence of Jak2 (O60674 whole entry, looked up): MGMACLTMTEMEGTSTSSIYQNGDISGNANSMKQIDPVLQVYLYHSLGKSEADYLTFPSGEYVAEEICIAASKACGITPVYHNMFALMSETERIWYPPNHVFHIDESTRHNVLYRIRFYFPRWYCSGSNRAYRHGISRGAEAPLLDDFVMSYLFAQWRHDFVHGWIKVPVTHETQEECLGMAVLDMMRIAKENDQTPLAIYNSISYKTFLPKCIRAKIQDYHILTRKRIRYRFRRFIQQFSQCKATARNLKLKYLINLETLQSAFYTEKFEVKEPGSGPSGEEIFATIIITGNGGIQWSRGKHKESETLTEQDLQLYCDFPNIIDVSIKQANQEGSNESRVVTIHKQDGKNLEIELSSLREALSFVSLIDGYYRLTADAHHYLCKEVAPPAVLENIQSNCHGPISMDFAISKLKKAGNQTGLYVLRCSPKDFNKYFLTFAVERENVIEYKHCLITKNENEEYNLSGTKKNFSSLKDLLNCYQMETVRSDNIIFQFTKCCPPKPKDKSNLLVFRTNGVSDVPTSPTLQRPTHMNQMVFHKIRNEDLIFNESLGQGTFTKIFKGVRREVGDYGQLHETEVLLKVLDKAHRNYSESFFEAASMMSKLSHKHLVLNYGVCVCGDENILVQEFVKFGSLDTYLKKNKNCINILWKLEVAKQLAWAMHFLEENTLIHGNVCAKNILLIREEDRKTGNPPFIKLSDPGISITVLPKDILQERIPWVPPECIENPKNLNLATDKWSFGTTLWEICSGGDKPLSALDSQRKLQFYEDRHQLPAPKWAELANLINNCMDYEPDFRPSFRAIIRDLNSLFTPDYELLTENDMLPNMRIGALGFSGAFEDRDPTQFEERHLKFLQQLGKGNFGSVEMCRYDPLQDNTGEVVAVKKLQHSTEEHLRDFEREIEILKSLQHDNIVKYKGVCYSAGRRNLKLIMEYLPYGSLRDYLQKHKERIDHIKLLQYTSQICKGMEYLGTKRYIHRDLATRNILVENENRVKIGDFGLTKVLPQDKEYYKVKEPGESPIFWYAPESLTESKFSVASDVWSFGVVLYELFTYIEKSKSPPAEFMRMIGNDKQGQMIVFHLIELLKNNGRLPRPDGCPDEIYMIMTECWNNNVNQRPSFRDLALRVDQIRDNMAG
Sequence of Hck (P08631 whole entry, looked up): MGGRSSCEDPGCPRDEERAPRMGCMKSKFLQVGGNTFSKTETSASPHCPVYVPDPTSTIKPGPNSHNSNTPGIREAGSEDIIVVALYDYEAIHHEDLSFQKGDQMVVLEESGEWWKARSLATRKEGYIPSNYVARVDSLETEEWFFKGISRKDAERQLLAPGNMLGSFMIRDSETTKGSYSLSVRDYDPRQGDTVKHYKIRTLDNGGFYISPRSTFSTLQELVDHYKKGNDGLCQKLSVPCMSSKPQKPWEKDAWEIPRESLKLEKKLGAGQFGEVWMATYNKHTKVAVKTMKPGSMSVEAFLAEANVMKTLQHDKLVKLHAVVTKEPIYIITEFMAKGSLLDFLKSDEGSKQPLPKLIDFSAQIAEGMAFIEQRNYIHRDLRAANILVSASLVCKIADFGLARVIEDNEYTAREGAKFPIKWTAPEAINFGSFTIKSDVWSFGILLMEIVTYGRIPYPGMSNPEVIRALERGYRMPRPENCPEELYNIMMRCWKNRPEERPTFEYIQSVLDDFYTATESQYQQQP
Sequence of Fyn (P06241 whole entry, looked up): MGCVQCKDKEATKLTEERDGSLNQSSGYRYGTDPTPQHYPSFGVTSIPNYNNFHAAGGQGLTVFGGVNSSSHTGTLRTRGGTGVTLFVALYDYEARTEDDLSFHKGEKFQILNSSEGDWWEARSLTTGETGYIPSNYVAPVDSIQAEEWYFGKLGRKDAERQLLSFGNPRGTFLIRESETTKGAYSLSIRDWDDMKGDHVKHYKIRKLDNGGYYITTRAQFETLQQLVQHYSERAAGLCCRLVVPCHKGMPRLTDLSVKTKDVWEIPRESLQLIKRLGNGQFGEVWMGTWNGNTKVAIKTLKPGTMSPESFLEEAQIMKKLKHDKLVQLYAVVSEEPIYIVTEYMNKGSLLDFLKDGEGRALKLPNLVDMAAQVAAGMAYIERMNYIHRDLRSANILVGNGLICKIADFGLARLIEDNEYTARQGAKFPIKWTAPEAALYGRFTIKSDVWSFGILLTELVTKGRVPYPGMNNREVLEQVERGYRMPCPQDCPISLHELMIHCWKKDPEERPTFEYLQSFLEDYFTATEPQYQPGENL

| Sequence | phosphorylation enrichment (Fer (mouse)) | phosphorylation enrichment (Fes) | phosphorylation enrichment (Fyn) | phosphorylation enrichment (EPHB1) | phosphorylation enrichment (c-Abl (mouse)) | phosphorylation enrichment (Hck) | phosphorylation enrichment (FGFR3) | phosphorylation enrichment (EPHB2) | phosphorylation enrichment (MERTK) | phosphorylation enrichment (c-Src) | phosphorylation enrichment (FGFR1) | phosphorylation enrichment (Jak2) | phosphorylation enrichment (AncSZ) | SH2 binding enrichment (SHP2-C SH2) | SH2 binding enrichment (Grb2 SH2) | SH2 binding enrichment (c-Src SH2) |
| --- | --- | --- | --- | --- | --- | --- | --- | --- | --- | --- | --- | --- | --- | --- | --- | --- |
| ALVDTYCRHNF [HLA-DRB1_Y107_A103L_YF] | 0.588 | 0.935 | 0.454 | 0.55 | 0.683 | 0.577 | 0.682 | 0.613 | 0.549 | 0.538 | 0.472 | 0.847 | 0.782 | 0.845 | 0.991 | 0.711 |
| DYYDLYGGEKF [PTPN11_Y66] | 1.61 | 1.2 | 5.73 | 6.42 | 0.74 | 5.08 | 12.9 | 6.92 | 3.7 | 4.69 | 13.4 | 2.7 | 2.92 | 0.68 | 1.21 | 0.734 |
| DTKDDYSALSV [IL17RB_Y457_N458S] | 0.642 | 1.09 | 0.56 | 0.627 | 0.815 | 0.661 | 0.828 | 0.663 | 0.441 | 0.473 | 0.715 | 0.928 | 1.05 | 0.771 | 0.956 | 0.609 |
| VRFMAYTDEIF [F8_Y450_T454I] | 0.65 | 1.21 | 0.434 | 0.598 | 1.23 | 0.436 | 0.753 | 0.595 | 0.697 | 0.434 | 0.608 | 1.07 | 1.21 | 0.72 | 1.07 | 0.554 |
| ILKPDYQPLAI [HYDIN_Y1072] | 0.379 | 0.65 | 0.415 | 0.489 | 0.62 | 0.484 | 0.533 | 0.403 | 0.425 | 0.376 | 0.376 | 0.556 | 0.613 | 0.847 | 0.814 | 0.541 |
| KNSFKYFMSDD [ATRX_Y203_C200S_YF] | 0.412 | 1.02 | 0.392 | 0.475 | 0.628 | 0.478 | 0.638 | 0.55 | 0.418 | 0.425 | 0.416 | 0.869 | 0.856 | 0.587 | 0.942 | 0.556 |
| ARKWGYTVKGI [OAT_Y158] | 0.352 | 0.912 | 0.423 | 0.503 | 0.724 | 0.354 | 0.517 | 0.448 | 0.377 | 0.327 | 0.437 | 0.668 | 0.914 | 0.782 | 0.779 | 0.479 |
| VQDPAYLRDIN [OPRK1_Y369_D374N] | 0.46 | 0.974 | 0.467 | 0.608 | 0.604 | 0.442 | 0.623 | 0.485 | 0.333 | 0.488 | 0.415 | 0.766 | 0.828 | 0.555 | 0.75 | 0.454 |
| GCRSKHVGLWG [KCNQ1_Y184_Y184H] | 0.325 | 0.481 | 0.385 | 0.316 | 0.516 | 0.328 | 0.388 | 0.314 | 0.397 | 0.359 | 0.36 | 0.409 | 0.518 | 0.906 | 1.17 | 0.86 |
| PDDPNYSLVDD [PSTPIP2_Y323] | 1.07 | 1.81 | 1.15 | 1.09 | 0.8 | 1.11 | 1.31 | 1.49 | 0.662 | 0.603 | 1.06 | 1.4 | 2.13 | 0.822 | 1.11 | 1.42 |
| QNTGNYFDLFG [PTPN11_Y62_D61N_YF] | 0.925 | 1.44 | 0.541 | 27.6 | 1.28 | 0.49 | 15.3 | 22.6 | 10.8 | 0.71 | 21.2 | 4.13 | 1.6 | 0.867 | 1.04 | 0.599 |

Reference: the supplement of paper PMC10065799, “High-throughput profiling of sequence recognition by tyrosine kinases and SH2 domains using bacterial peptide display” (eLife, 2023)
